B1: Tryptophan synthase alpha chain, P0A877 (parent)
chain: MERYESLFAQLKERKEGAFVPFVTLGDPGIEQSLKIIDTLIEAGADALELGIPFSDPLADGPTIQNATLRAFAAGVTPAQCFEMLALIRQKHPTIPIGLLMYANLVFNKGIDEFYAQCEKVGVDSVLVADVPVEESAPFRQAALRHNVAPIFICPPNADDDLLRQIASYGRGYTYLLSRAGVTGAENRAALPLNHLVAKLKEYNAAPPLQGFGISAPDQVKAAIDAGAAGAISGSAIVKIIEQHINEPEKMLAALKVFVQPMKAATRS

Variants of: B1
Conditions: Escherichia coli (strain K12), pH 7.8, Urea, NMR, Potassium phosphate 58 mM, reversible: yes, structure 1WQ5, whole UniProt chain shown

| Variant | denaturant midpoint (higher = more stable) (5 °C) | unfolding free energy (5 °C) | denaturant midpoint (higher = more stable) (25 °C) | unfolding free energy (25 °C) |
| --- | --- | --- | --- | --- |
| H244A | 4.8 M | 4 kcal/mol |  |  |
| I95A |  |  | 6.2 M | 7.9 kcal/mol |
| P93A H244A |  |  | 5.4 M | 3.4 kcal/mol |
| P96A |  |  | 8.6 M | 4.9 kcal/mol |
| L100A |  |  | 5.2 M | 4.7 kcal/mol |
| Y102A |  |  | 5 M | 5.4 kcal/mol |

— FireProtDB (doi:10.1021/bi951726o)
